# Results from patent US20260226191A1 (SHANDONG SIMCERE BIOPHARMACEUTICAL, published 2026).
# T1: Cyno MUC17 ECD3577-mFc (mFc-tagged cynomolgus monkey MUC17 protein extracellular region fusion protein) (cynomolgus monkey)
# T1 construct: also called monkey MUC17-mFc protein; Monkey MUC17-ECD3577-mFc protein
# T1 chain: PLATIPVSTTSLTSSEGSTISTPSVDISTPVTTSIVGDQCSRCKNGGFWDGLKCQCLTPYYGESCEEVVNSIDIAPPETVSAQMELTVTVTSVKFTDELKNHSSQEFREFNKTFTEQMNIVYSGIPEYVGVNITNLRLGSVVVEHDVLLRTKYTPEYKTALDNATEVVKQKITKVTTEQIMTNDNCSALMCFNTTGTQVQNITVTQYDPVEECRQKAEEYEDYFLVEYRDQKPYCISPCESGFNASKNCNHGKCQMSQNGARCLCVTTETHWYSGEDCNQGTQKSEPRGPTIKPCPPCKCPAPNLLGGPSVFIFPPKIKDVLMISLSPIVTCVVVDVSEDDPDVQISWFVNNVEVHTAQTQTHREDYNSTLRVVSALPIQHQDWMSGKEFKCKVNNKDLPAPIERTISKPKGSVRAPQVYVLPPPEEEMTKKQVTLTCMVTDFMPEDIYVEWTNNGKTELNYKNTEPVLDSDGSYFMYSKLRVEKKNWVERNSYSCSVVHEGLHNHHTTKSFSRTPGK
# B1: Bis 57 (bispecific antibody, human IgG1, kappa)
# heavy: EVQLVESGGGVVQPGRSLRLSCAASGFTFTDYYMSWVRQAPGKGLEWVAMSRNKAKGHTIEYSSSVKGRFTISRDNSKNTLYLQMNSLRAEDTAVYYCARDTYESYDGYFDVWGQGTTVTVSSASTKGPSVFPLAPSSKSTSGGTAALGCLVKDYFPEPVTVSWNSGALTSGVHTFPAVLQSSGLYSLSSVVTVPSSSLGTQTYICNVNHKPSNTKVDKKVEPKSCDKTHTCPPCPAPEAAGAPSVFLFPPKPKDTLMISRTPEVTCVVVDVSHEDPEVKFNWYVDGVEVHNAKTKPREEQYNSTYRVVSVLTVLHQDWLNGKEYKCKVSNKALPAPIEKTISKAKGQPREPQVYTLPPSREEMTKNQVSLWCLVKGFYPSDIAVEWESNGQPENNYKTTPPVLDSDGSFFLYSKLTVDKSRWQQGNVFSCSVMHEALHNHYTQKSLSLSPG
# light: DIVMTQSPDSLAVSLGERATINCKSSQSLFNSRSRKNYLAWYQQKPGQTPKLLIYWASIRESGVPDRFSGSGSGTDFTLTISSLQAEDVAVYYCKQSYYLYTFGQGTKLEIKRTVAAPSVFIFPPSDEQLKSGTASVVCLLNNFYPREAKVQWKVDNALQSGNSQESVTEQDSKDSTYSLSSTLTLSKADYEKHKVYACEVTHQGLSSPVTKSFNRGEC
# chain: EVQLVESGGGLVQPGRSLRLSCAASGDITRRCMGWFRQAPGKEREGVAGISEDGITIYADSVKGRFTISKDNAKNSLYLQMNSLRAEDTALYSCAASILNRVGCRQLSYEYIYRGQGTMVTVSSGGGDKTHTCPPCPAPEAAGAPSVFLFPPKPKDTLMISRTPEVTCVVVDVSHEDPEVKFNWYVDGVEVHNAKTKPREEQYNSTYRVVSVLTVLHQDWLNGKEYKCKVSNKALPAPIEKTISKAKGQPREPQVYTLPPSREEMTKNQVSLSCAVKGFYPSDIAVEWESNGQPENNYKTTPPVLDSDGSFFLVSKLTVDKSRWQQGNVFSCSVMHEALHNHYTQKSLSLSPG
# notes: Three-chain asymmetric MUC17xCD3 bispecific
# B2: Bis 58 (bispecific antibody, human IgG1, kappa)
# heavy: B1 heavy
# light: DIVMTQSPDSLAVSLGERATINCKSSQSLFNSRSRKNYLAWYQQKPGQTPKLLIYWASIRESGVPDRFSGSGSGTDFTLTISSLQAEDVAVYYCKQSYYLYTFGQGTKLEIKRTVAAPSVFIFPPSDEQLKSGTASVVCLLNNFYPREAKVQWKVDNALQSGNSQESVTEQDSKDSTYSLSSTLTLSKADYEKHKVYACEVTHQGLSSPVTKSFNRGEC
# chain: EVQLVESGGGLVQPGGSLRLSCAASGFPSSRGTMAWFRQAPGKEREGVAFINSDGRTSYAESVKGRFTISRDNAKNSLYLQMNSLRAEDTAVYYCAASLLYLMTVNAAAYPYWGQGTMVTVSSGGGDKTHTCPPCPAPEAAGAPSVFLFPPKPKDTLMISRTPEVTCVVVDVSHEDPEVKFNWYVDGVEVHNAKTKPREEQYNSTYRVVSVLTVLHQDWLNGKEYKCKVSNKALPAPIEKTISKAKGQPREPQVYTLPPSREEMTKNQVSLSCAVKGFYPSDIAVEWESNGQPENNYKTTPPVLDSDGSFFLVSKLTVDKSRWQQGNVFSCSVMHEALHNHYTQKSLSLSPG
# notes: as for B1
# B3: Bis 59 (bispecific antibody, human IgG1, kappa)
# heavy: B1 heavy
# light: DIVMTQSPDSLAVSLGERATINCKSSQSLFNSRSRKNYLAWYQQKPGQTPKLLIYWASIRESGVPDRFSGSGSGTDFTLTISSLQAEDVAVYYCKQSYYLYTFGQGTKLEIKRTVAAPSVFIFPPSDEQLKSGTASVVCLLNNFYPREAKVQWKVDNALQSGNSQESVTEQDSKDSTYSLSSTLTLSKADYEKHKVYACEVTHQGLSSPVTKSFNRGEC
# chain: EVQLVESGGGVVQPGGSLRLSCAASGDTFSRGSWGWFRQAPGKEREAVALISSDGWTFYADSVKGRFTISQDNSKNTLYLQMNSLRAEDTAVYYCAASVLVLRTLNPKAWHHWGQGTMVTVSSGGGDKTHTCPPCPAPEAAGAPSVFLFPPKPKDTLMISRTPEVTCVVVDVSHEDPEVKFNWYVDGVEVHNAKTKPREEQYNSTYRVVSVLTVLHQDWLNGKEYKCKVSNKALPAPIEKTISKAKGQPREPQVYTLPPSREEMTKNQVSLSCAVKGFYPSDIAVEWESNGQPENNYKTTPPVLDSDGSFFLVSKLTVDKSRWQQGNVFSCSVMHEALHNHYTQKSLSLSPG
# notes: as for B1
# B4: Bis 92 (bispecific antibody, human IgG1, kappa)
# heavy: B1 heavy
# light: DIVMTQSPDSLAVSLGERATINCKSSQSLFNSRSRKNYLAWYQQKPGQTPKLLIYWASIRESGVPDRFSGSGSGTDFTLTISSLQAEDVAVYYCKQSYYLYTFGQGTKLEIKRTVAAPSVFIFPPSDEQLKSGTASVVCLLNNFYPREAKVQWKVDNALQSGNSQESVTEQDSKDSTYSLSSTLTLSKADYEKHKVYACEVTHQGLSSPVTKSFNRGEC
# chain: EVQLVESGGGVVQPGGSLRLSCAASGYTSNRYSMAWFRQAPGKEREVVAFIWTDGGRTYYADSVKGRFTISRDNSKNTLYLQMNSLRAEDTAVYYCAASSLLLQTINPRAWPYWGQGTMVTVSSGGGDKTHTCPPCPAPEAAGAPSVFLFPPKPKDTLMISRTPEVTCVVVDVSHEDPEVKFNWYVDGVEVHNAKTKPREEQYNSTYRVVSVLTVLHQDWLNGKEYKCKVSNKALPAPIEKTISKAKGQPREPQVYTLPPSREEMTKNQVSLSCAVKGFYPSDIAVEWESNGQPENNYKTTPPVLDSDGSFFLVSKLTVDKSRWQQGNVFSCSVMHEALHNHYTQKSLSLSPG
# notes: as for B1
# B5: antiFITCx CD3 negative control (bispecific antibody, human IgG1, kappa)
# heavy: B1 heavy
# light: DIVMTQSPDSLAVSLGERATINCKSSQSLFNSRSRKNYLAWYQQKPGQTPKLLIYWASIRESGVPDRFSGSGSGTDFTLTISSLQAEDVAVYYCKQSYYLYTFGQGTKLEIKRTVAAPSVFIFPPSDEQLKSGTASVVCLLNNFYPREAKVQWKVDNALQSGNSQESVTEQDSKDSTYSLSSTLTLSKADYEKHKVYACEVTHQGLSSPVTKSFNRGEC
# chain: EVKLDETGGGLVQPGRPMKLSCVASGFTFSDYWMNWVRQSPEKGLEWVAQIRNKPYNYETYYSDSVKGRFTISRDDSKSSVYLQMNNLRVEDMGIYYCTGSYYGMDYWGQGTSVTVSSGGGGSGGGGSGGGGSDVVMTQTPLSLPVSLGDQASISCRSSQSLVHSNGNTYLRWYLQKPGQSPKVLIYKVSNRFSGVPDRFSGSGSGTDFTLKISRVEAEDLGVYFCSQSTHVPWTFGGGTKLEIKGGGDKTHTCPPCPAPEAAGAPSVFLFPPKPKDTLMISRTPEVTCVVVDVSHEDPEVKFNWYVDGVEVHNAKTKPREEQYNSTYRVVSVLTVLHQDWLNGKEYKCKVSNKALPAPIEKTISKAKGQPREPQVYTLPPSREEMTKNQVSLSCAVKGFYPSDIAVEWESNGQPENNYKTTPPVLDSDGSFFLVSKLTVDKSRWQQGNVFSCSVMHEALHNHYTQKSLSLSPG
# notes: Negative control with the same anti-CD3 arm and an anti-FITC scFv in place of the MUC17 VHH
# Target: T2, human MUC17 on endogenous tumor cells (NUGC4, SNU16, ASPC1) (human)
# Experiment: cell-based or functional assay
Binder,"PBMC-mediated in vitro tumor cell killing EC50, ASPC-1 [nM]","PBMC-mediated in vitro tumor cell killing EC50, NUGC4 [nM]","PBMC-mediated in vitro tumor cell killing EC50, SNU16 [nM]"
B1,0.011,0.024,0.017
B2,0.0194,0.0271,–
B3,0.0073,0.0166,0.0126
B4,0.00739,0.00779,–

# Target: T2, human MUC17 on endogenous tumor cells …
# Experiment: FACS on AspC-1 cells (endogenous human MUC17), MFI
row,Binder,EC50 (read off the curve) [nM]
1,B1,~0.3
2,B2,~0.2
3,B3,~0.2
4,B4,~0.08

# Target: T3, Human MUC17 ECD4131-his (His-tagged human MUC17 protein extracellular region fusion protein) (human, UniProt Q685J3 4131-4393)
# T3 construct: also called human MUC17-his protein; Human MUC17-ECD(4131-4393)-His protein
# Experiment: ELISA, human MUC17-his coated on the plate, OD450
Binder,EC50 (read off the curve) [nM],binding result
B1,~0.05,–
B2,~0.05,–
B3,~0.05,–
B4,~0.05,–
B5,–,no binding

# Target: T2, human MUC17 on endogenous tumor cells …
# Experiment: FACS on SNU16 cells (endogenous human MUC17), MFI
row,Binder,EC50 (read off the curve) [nM]
1,B1,~0.3
2,B2,~0.2
3,B3,~0.2
4,B4,~0.08

# Target: T4, monkey MUC17 on FlpinCHO-cynoMUC17-D1 cells (monkey)
# T4 construct: On cells; also called recombinant cells overexpressing monkey MUC17
# Experiment: FACS on FlpinCHO-cynoMUC17-D1 cells, MFI
row,Binder,EC50 (read off the curve) [nM]
1,B1,~8
2,B2,~8
3,B4,~20

# Target: T3, Human MUC17 ECD4131-his (His-tagged …)
# Experiment: SPR (Biacore 8K), antibody captured on Protein A, antigen injected, 25 C, 1:1 model
Binder,Kd [nM],koff [s⁻¹],kon [M⁻¹ s⁻¹]
B1,0.289,4.86e-05,168000
B2,0.378,0.000138,364000
B3,0.219,9.74e-05,445000
B4,0.136,7.81e-05,572000

# Target: T1, Cyno MUC17 ECD3577-mFc (mFc-tagged …)
# Experiment: as above
Binder,Kd [nM],koff [s⁻¹],kon [M⁻¹ s⁻¹]
B1,4.71,0.00016,33900
B2,7.11,0.00031,43600
B3,25.6,0.000866,33900
B4,13.4,0.000511,38100

# Target: T2, human MUC17 on endogenous tumor cells …
# Experiment: FACS on NUGC4 cells (endogenous human MUC17), MFI
row,Binder,EC50 (read off the curve) [nM]
1,B1,~1
2,B2,~0.5
3,B3,~0.6
4,B4,~0.2

# Target: T5, Human CD3e-His protein (Sino Biological, CAT #10977-H08H) (human, UniProt P07766 23-126)
# T5 construct: Bought reagent; also called human CD3e protein
# Experiment: ELISA, human CD3e-His coated on the plate, OD450
# T5 sequence (P07766 23-126 limits assumed): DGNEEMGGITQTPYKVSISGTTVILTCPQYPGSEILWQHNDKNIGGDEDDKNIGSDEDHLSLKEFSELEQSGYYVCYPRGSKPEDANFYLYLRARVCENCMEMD
row,Binder,binding result
1,B1,binds
2,B3,binds
3,B4,binds
4,B5,binds

# Target: T1, Cyno MUC17 ECD3577-mFc (mFc-tagged …)
# Experiment: ELISA, cynomolgus MUC17-mFc coated on the plate, OD450
row,Binder,EC50 (read off the curve) [nM]
1,B1,~0.04
2,B2,~0.07
3,B3,~0.2
4,B4,~0.09

# Target: T6, human cell surface CD3 (Jurkat cells, human PBMCs) (human, UniProt P07766 23-207)
# T6 construct: whole, on cells; CD3 is a multi-chain complex on the cell
# Experiment: FACS on naive human PBMCs (CD3), MFI
# T6 sequence (P07766 23-207): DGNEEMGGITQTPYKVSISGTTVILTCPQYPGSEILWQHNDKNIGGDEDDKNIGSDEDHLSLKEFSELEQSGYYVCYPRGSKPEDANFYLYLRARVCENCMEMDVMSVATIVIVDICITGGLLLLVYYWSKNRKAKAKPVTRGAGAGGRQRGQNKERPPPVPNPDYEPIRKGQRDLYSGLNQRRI
row,Binder,EC50 (read off the curve) [nM]
1,B2,~50

# Target: T7, human MUC17 fragment on FlpinCHO-huMUC17-D1 cells (human)
# T7 construct: On cells; also called cells overexpressing human MUC17
# Experiment: FACS on FlpinCHO-huMUC17-D1 cells, MFI
row,Binder,EC50 (read off the curve) [nM]
1,B1,~2
2,B2,~1
3,B3,~1
4,B4,~1
